These results are taken from publication PMC4298015.

Series [1] deals with GST-Gli1ZF-K350A (UniProt P08151 242-424, K350A). The series can be described thus: EMSA.
Series [2] concerns the target GST-Gli1ZF-WT (UniProt P08151 242-424). Put plainly: EMSA.

Chain of GST-Gli1ZF-K350A (P08151 242-424 K350A): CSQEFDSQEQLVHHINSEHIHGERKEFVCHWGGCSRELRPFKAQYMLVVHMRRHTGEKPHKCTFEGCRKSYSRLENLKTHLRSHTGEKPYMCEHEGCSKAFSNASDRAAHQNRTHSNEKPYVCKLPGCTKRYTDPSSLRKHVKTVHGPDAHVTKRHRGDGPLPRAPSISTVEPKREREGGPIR
Chain of GST-Gli1ZF-WT (P08151 242-424): as the sequence (P08151 242-424 K350A) above, with A109K counted along it

B1: GliBS (dsDNA)
DNA 1: TTGCCTACCTGGGTGGTCTCTCCACTT
DNA 2: AAGTGGAGAGACCACCCAGGTAGGCAA
For the molecule B1, the binding result is listed as “no binding” in series [1] and “binds” in series [2].
